{"source": "patent US20150082475", "proteins": {"B1": {"name": "recombinant OsPSTOL1 (OsPSTOL1rec) (protein)", "chain": "MLLCQRASKNAPRIESFLQKQETSNPKRYTLSEVKRMTKSFAHKLGRGGFGTVYKGSLPDGREIAVKMLKDTKGDGEEFINEVAGISKTSHINVVNLLGFSLQGSKRALIYEYMPNGSLDRYSFGDSSVQGDNTLSWDRLFNIIVGIARGLEYLHCHCNIRIVHFDIKPQNILLAQDFCPKISDFGLSKLCHLKESRISINGLRGTPGYIAPEVFSRQYGSASSKSDVYSYGMVVLEMAGAKKNINVSTGSSSKYFPQWLYDNLDQFCCPTGEISSQTTDLVRKMVVVGLWCIQLVPTDRPSMREVLEMLESNGRDLPLPPKGLHHHHHH"}}, "target": "light-harvesting complex II (LHCII) in thylakoids of the Arabidopsis thaliana stn7 stn8 double mutant", "data": [{"protein": "B1", "values": [{"measurement": "phosphorylation of LHCII, in vitro phosphorylation assay with phosphothreonine-specific immunoblot", "result": "recombinant OsPSTOL1 protein restores phosphorylation of the light-harvesting complex II (LHCII) in the Arabidopsis stn7 stn8 double mutant (lane 4)"}]}]}
